Results from article PMC11408154, “Anti-mutagenic agent targeting LexA to combat antimicrobial resistance in mycobacteria” (The Journal of Biological Chemistry, 2024).

Target: the molecule itself
Assay: cross-linking; glutaraldehyde cross-linking of Mtb LexA with or without 3-nPBA (protein to inhibitor 1:100); stopped with 25 mM DTT; 12% SDS-PAGE

B1: Mycobacterium tuberculosis LexA (natural protein)
chain: MNDSNDTSVAGGAAGADSRVLSADSALTERQRTILDVIRASVTSRGYPPSIREIGDAVGLTSTSSVAHQLRTLERKGYLRRDPNRPRAVNVRGADDAALPPVTEVAGSDALPEPTFVPVLGRIAAGGPILAEEAVEDVFPLPRELVGEGTLFLLKVIGDSMVEAAICDGDWVVVRQQNVADNGDIVAAMIDGEATVKTFKRAGGQVWLMPHNPAFDPIPGNDATVLGKVVTVIRKV
notes: also called Mtb LexA; WT Mtb LexA
Q: Does B1 bind?
A: binds
